In patent publication US10654939:

Columns and labels:
[1] = molecular target: human CD40 expressed on cells (human) (UniProt P25942); assay: cell-based or functional assay
[2] = molecular target: recombinant rhesus CD40 (ECD)-hFc (rhesus monkey); assay: ELISA, rhCD40(ECD)-hFc coated
[3] = molecular target: recombinant human CD40 (ECD)-his (human) (UniProt P25942); assay: SPR (Biacore 8K), hCD40(ECD)-his coupled to chip, antibody injected
[4] = molecular target: recombinant human CD40 (ECD)-his (human) (UniProt P25942); assay: ELISA, hCD40(ECD)-his coated
[5] = molecular target: rhesus CD40 expressed on HEK293A cells (rhesus monkey); assay: FACS, HEK293A/rhesusCD40 cells
[6] = molecular target: human CD40 expressed on cells (human) (UniProt P25942); assay: FACS, HEK293A/humanCD40 cells

recombinant human CD40 (ECD)-his (human), sequence (P25942 21-193): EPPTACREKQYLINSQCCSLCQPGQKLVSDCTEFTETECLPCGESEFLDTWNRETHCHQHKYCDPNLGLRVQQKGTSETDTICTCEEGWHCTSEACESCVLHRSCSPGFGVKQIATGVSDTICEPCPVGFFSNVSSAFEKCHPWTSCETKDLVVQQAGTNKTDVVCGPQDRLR
human CD40 expressed on cells (human), sequence (P25942 21-277 limits assumed): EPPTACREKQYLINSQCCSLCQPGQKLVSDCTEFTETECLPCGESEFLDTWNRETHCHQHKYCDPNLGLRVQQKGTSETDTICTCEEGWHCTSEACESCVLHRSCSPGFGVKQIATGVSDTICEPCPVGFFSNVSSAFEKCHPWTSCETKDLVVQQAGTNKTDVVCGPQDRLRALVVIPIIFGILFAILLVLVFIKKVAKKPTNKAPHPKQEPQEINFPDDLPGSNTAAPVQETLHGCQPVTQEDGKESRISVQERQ
recombinant rhesus CD40 (ECD)-hFc (rhesus monkey), sequence (P25942 other isoform, or with tags, fused parts or gaps): as the sequence (P25942 21-193) above, with G43S, H56R, W89L, T92M, A95S, L101P, S106L, H142R, L172Q counted along it
rhesus CD40 expressed on HEK293A cells (rhesus monkey), sequence (P25942 other isoform, or with tags, fused parts or gaps limits assumed): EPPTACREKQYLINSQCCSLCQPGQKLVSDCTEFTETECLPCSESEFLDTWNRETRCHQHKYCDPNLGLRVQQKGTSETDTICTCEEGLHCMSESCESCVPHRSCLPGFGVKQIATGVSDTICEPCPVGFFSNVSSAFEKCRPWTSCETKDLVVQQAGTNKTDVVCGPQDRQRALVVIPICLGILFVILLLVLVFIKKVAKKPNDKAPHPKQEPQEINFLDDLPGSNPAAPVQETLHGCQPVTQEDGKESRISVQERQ

B1: ADC1013 (antibody, INN chains, looked up, V domains shown)
VH: EVQLLESGGGLVQPGGSLRLSCAASGFTFSTYGMHWVRQAPGKGLEWLSYISGGSSYIFYADSVRGRFTISRDNSENALYLQMNSLRAEDTAVYYCARILRGGSGMDLWGQGTLVTVSS
VL: QSVLTQPPSASGTPGQRVTISCTGSSSNIGAGYNVYWYQQLPGTAPKLLIYGNINRPSGVPDRFSGSKSGTSASLAISGLRSEDEADYYCAAWDKSISGLVFGGGTKLTVL
modifications: IgG1/kappa
Q: How did the HEK Blue EC50 [1] turn out when B1 was run?
A: The HEK Blue EC50 was 1.03 µg/mL.

Q: And the EC50 [2]?
A: The EC50 was 0.0229 µg/mL.

Q: And the Kd [3]?
A: The Kd was 29 nM.

Q: And the koff [3]?
A: Its koff is 0.0348 s⁻¹.

Q: What about the kon [3] of the same binder?
A: The kon was 1.2e+06 M⁻¹ s⁻¹.

Q: And the EC50 [4]?
A: The EC50 was 0.024 µg/mL.

Q: What about the EC50 [5] of the same binder?
A: The EC50 was 0.0673 µg/mL.

Q: And the EC50 [6]?
A: The EC50 was 0.149 µg/mL.
